Results taken from article PMC6477676, “Staufen2-mediated RNA recognition and localization requires combinatorial action of multiple domains”.

T1: mStau2 dsRBD1-2 F40A H169A (Mus musculus, UniProt Q8CJ67 8-181, F40A;H169A)
T1 sequence: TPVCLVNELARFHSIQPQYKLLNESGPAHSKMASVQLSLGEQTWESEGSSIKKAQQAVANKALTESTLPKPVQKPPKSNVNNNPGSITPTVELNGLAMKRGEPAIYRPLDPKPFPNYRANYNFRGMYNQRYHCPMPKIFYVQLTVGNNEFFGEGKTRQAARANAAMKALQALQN

T2: mStau2 dsRBD1-2 F40A F157A (Mus musculus, UniProt Q8CJ67 8-181, F40A;F157A)
T2 sequence: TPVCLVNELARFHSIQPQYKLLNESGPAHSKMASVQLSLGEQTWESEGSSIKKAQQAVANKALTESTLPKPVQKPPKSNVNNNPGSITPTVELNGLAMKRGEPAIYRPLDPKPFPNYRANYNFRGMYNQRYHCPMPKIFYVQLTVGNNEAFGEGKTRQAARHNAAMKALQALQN

T3: mStau2 dsRBD1-4 F40A H169A (Mus musculus, UniProt Q8CJ67 8-375, F40A;H169A)
T3 sequence: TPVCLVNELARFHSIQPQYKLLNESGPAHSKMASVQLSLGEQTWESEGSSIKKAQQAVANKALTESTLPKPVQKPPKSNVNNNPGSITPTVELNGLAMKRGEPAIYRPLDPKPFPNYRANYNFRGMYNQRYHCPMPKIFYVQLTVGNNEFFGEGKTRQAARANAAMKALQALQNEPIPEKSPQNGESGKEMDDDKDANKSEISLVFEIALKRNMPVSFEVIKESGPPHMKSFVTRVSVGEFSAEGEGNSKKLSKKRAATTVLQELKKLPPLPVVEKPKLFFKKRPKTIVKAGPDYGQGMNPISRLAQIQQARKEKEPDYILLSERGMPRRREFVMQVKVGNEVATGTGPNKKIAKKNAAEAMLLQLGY

T4: mStau2 dsRBD1-2 F157A (Mus musculus, UniProt Q8CJ67 8-181, F157A)
T4 sequence: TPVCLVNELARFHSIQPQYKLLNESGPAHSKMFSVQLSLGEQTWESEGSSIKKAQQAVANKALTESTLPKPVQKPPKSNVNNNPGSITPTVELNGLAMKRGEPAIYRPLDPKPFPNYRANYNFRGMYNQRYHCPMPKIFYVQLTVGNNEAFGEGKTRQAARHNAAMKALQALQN

T5: mStau2 full-length (Mus musculus, UniProt Q8CJ67 1-570)
T5 sequence: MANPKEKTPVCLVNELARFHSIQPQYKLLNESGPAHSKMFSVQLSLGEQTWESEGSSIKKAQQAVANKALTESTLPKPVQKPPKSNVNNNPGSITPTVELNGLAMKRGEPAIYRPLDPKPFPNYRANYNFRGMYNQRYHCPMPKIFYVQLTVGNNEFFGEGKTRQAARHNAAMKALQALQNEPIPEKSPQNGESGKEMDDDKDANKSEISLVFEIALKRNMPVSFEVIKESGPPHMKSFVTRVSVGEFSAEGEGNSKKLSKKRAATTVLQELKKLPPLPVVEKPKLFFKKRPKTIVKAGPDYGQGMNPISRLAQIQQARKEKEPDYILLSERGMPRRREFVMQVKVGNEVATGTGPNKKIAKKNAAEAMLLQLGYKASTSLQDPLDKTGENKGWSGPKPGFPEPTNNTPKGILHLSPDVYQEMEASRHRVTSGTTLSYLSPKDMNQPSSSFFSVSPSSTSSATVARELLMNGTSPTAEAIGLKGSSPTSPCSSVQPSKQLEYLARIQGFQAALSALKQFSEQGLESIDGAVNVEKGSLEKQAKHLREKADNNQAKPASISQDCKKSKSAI


Legend:
[1] = target: T1, mStau2 dsRBD1-2 F40A H169A; assay: SPR; no fit; SPR: HBS-EP (10 mM HEPES pH 7.4, 150 mM NaCl, 3 mM EDTA, 0.005% P20); EMSA: 5 nM RNA, protein buffer (40 mM Bis-Tris pH 7, 150 mM NaCl, 2 mM DTT presumed), 4% glycerol, 30 ug/mL yeast tRNA, RT; NMR: 150 mM NaCl, 20 mM Na phosphate pH 7.0, 5 mM DTT, 298 K; details: protein: recombinant, label: 5' 32P (EMSA), biotin (SPR)
[2] = target: T2, mStau2 dsRBD1-2 F40A F157A; assay: as above; details: protein: recombinant, label: 5' 32P (EMSA), biotin (SPR)
[3] = target: T3, mStau2 dsRBD1-4 F40A H169A; assay: SPR; two-site, transient; KDs resemble dsRBD3-4; SPR: HBS-EP (10 mM HEPES pH 7.4, 150 mM NaCl, 3 mM EDTA, 0.005% P20); EMSA: 5 nM RNA, protein buffer (40 mM Bis-Tris pH 7, 150 mM NaCl, 2 mM DTT presumed), 4% glycerol, 30 ug/mL yeast tRNA, RT; NMR: 150 mM NaCl, 20 mM Na phosphate pH 7.0, 5 mM DTT, 298 K; details: protein: recombinant, label: 5' 32P (EMSA), biotin (SPR)
mStau2 dsRBD1-2 F157A = target: T4, mStau2 dsRBD1-2 F157A; assay: SPR; Hill n 1.5; stable kinetics; SPR: HBS-EP (10 mM HEPES pH 7.4, 150 mM NaCl, 3 mM EDTA, 0.005% P20); EMSA: 5 nM RNA, protein buffer (40 mM Bis-Tris pH 7, 150 mM NaCl, 2 mM DTT presumed), 4% glycerol, 30 ug/mL yeast tRNA, RT; NMR: 150 mM NaCl, 20 mM Na phosphate pH 7.0, 5 mM DTT, 298 K; details: protein: recombinant; label: 5' 32P (EMSA); biotin (SPR); hairpin, 18 bp stem
mStau2 full-length = target: T5, mStau2 full-length; assay: EMSA; stated as 100 nM range; SPR: HBS-EP (10 mM HEPES pH 7.4, 150 mM NaCl, 3 mM EDTA, 0.005% P20); EMSA: 5 nM RNA, protein buffer (40 mM Bis-Tris pH 7, 150 mM NaCl, 2 mM DTT presumed), 4% glycerol, 30 ug/mL yeast tRNA, RT; NMR: 150 mM NaCl, 20 mM Na phosphate pH 7.0, 5 mM DTT, 298 K; details: protein: recombinant; tags: HisSUMO; label: 5' 32P (EMSA); biotin (SPR); imperfect hairpin, 26 bp with two bulges
[4] = imperfect hairpin, 26 bp with two bulges

Binder | binding result ([1]; hairpin, 18 bp stem) | binding result ([2]; hairpin, 18 bp stem) | binding result ([3]; hairpin, 18 bp stem) | Kd (mStau2 dsRBD1-2 F157A) [nM] | Kd (mStau2 full-length) [nM] | binding result [1, 4] | binding result [2, 4] | binding result [3, 4]
GGUAUAUACAUGCACAUGCAAUUUGUGUAUGUGUAUGUAUAUA (structured_RNA) [SRS2+5] | no binding | no binding | binds | 497 ± 238 |  |  |  | 
SRS* (SRS3) (structured_RNA) RNA: GGUAUGUGUGAAUGUGCAUGAAUAUAUAUAUAUAUGCAUAUAUAUAUUUGUAUAUGUUCACACAUG |  |  |  |  | ~100 | no binding | no binding | binds
